We go through 1 substance from patent publication US20190201494A1, “COMPOSITIONS AND METHODS FOR TREATING NICOTINE WITHDRAWAL” (STC UNM, priority 2016, published 2019).

For data set [1] the following is noted: cited from earlier work.
The test system of data set [2] is smokers, 36 hours of smoking abstinence. The data set can be described thus: Post-spray symptom-specific subjective ratings (0-10) of pain, burn, taste (Example 2). The format is in vivo, human. The protocol:
Additional outcome measures included safety measures, i.e., post-spray symptom-specific subjective ratings and adverse events. Post-spray symptom-specific subjective ratings (0-10) of burn, pain, cough, and taste were collected after each spray round. Administration instructions were one spray in each nostril every three minutes for the total of six sprays. […] Adverse events were recorded and collected following the completion of every session as well as completion of the entire study.
Placebo contained 8.7% NaCl. Per FDA approved protocol, the product was prepared in a biosafety cabinet of UNM Translational Radiopharmacy. Drug Preparation occurred 30 minutes before administration. […] or placebo was placed in a 10 mL amber glass bottle (Gerresheimer AG, Düsseldorf, Germany), which was capped with a 10 mg sterile nasal pump (Aero Pump GmbH, Hochheim, Germany). Assembled product was primed per manufacturer's recommendations before 0.6 ml volume was administered to study participants. In a randomized fashion, study nurse administered one spray in each nostril every three minutes for the total of six sprays of either insulin or placebo. As each spray delivers 0.1 ml of fluid, and the concentration of insulin in Novolin R is 100 IU/mL, administering six sprays delivers 60 IU of insulin.
Random coefficient models were constructed for analyzing study outcomes. Treatment, time, treatment by time interaction, and sequence were included as fixed effects. Time nested within subjects, and time nested within treatment nested within subjects were included as random effects. Adverse events are presented in a descriptive fashion. No adjustment for multiple tests was made; all p values are reported at their nominal level.

For data set [3], the system named is overnight abstinent smokers. The experiment in a line: Blood measurements: insulin, glucose, C-peptide, non-esterified fatty acids (Example 1). The format is in vivo, human. The protocol:
Blood measurements: Blood samples were analyzed for measurements of insulin, glucose, C-peptide, and non-esterified fatty acids.
Serum insulin was analyzed on the Immulite 1000 immunoassay system (Siemens Healthcare GmbH, Erlangen, Germany). This is a solid-phase, enzyme-labeled chemiluminescent immunometric assay. The solid phase (bead) was coated with monoclonal murine anti-insulin antibody. The liquid phase consisted of alkaline phosphatase (bovine calf intestine) conjugated to polyclonal sheep anti-insulin antibody and alkaline phosphatase (bovine calf intestine) conjugated to monoclonal murine anti-insulin antibody. The patient sample and the reagent were incubated together with the coated bead for 60 minutes. During this time, insulin in the sample forms the antibody sandwich complex with the monoclonal murine anti-insulin antibody on the bead, enzyme conjugated polyclonal sheep anti-insulin antibody, and enzyme conjugated monoclonal murine anti-insulin antibody in the reagent. Unbound patient sample and enzyme conjugate were then removed by centrifugal washes. Finally, chemiluminescent substrate was added to the test unit containing the bead and the signal is generated in proportion to the bound enzyme.
Serum glucose was performed on the ACE ALERA system (Alfa Wassermann Diagnostic Technologies, S.p.A., Bologna, Italy). An increase in absorbance of NADH is directly proportional to glucose concentration, and was measured bichromatically at 340 nm/378 nm.
Serum C-peptide was performed on the Immulite 1000 immunoassay system (Siemens Healthcare GmbH, Erlangen, Germany). This is a solid-phase, two-site chemiluminescent immunometric assay. The solid phase (bead) is coated with monoclonal murine anti-C-peptide antibody. The liquid phase consists of alkaline phosphatase (bovine calf intestine) conjugated to monoclonal murine anti-C-peptide antibody in buffer. The patient sample and the reagent were incubated together with the coated bead for 30 minutes. During this time, C-peptide in the sample forms the antibody sandwich complex with monoclonal murine anti-C-peptide antibody in the reagent. Unbound patient sample and enzyme conjugate were then removed by centrifugal washes. Finally, chemiluminescent substrate was added to the Test Unit containing the bead and the signal is generated in proportion to the bound enzyme.
Blood samples were collected at 12:20, 13:00, 13:40, and 14:10 and analyzed for non-esterified fatty acids using an AU 480 chemistry analyzer (Beckman Coulter, Inc., Brea, Calif.) using a NEFA-HR(2) kit (Wako Chemicals USA, Inc., Cape Charles, Va.).
Random coefficient models were constructed for analyzing subjective (i.e., craving and mood), blood (insulin, glucose, C-peptide and nonesterified fatty acids) and cardiovascular (blood pressure) measures. For every model, an evaluation of non-linear term was performed, and, if significance was detected, that polynomial term for time was included in the model. Treatment, time and treatment by time interaction were included as fixed effects. Time nested within subjects was included as a random effect. If an interaction was detected, post hoc comparisons were performed comparing treatment groups at each time point. Cortisol was log-transformed for the purpose of normalizing distribution. The summary measure for cortisol analysis was peak change from baseline. […] Significance values are reported as detected; no adjustments were made for multiple comparisons.

Setting [4] is: vs 8.7% NaCl placebo, scale 0-10, three spray rounds, p≤0.05.

“Also recorded” adds a separate entry of the source.

For “intranasal insulin: bulk human Regular insulin (U100 Novolin R, Novo Nordisk US), 100 IU/ml, six nasal sprays delivering 60 IU”, the “CSF insulin levels and peripheral insulin levels after intranasal administration” value in data set [1] (humans) was “increases CSF insulin levels without changing peripheral insulin levels”. The “Time to reach the CSF” value in data set [1] (intranasal route) is given as “within minutes”. Besides, in data set [2] (SE(b)=0.10, z=−0.75, p=0.45, not significant), the ““taste” rating, interaction with treatment, b” value was −0.07. For the same substance, the ““pain” rating, treatment×spray number, b” value in data set [2] (SE(b)=0.16, z=−0.47, p=0.63) was −0.07. For the same substance, the ““burn” rating, interaction with treatment, b” value in data set [2] (SE(b)=0.17, z=1.23, p=0.22, not significant) amounted to 0.21. In addition, the ““pain” rating, treatment, b” value in data set [2] (SE(b)=0.31, z=−1.17, p=0.24) is given as −0.36. Besides, the ““burn” rating, treatment, b” value in data set [2] (SE(b)=0.43, z=−2.34, p≤0.05) was −1.01. Further, in data set [2] (vs 8.7% NaCl placebo, scale 0-10, three spray rounds), the “Subjective spray rating of “pain”, effect of treatment” value is “No group differences were detected”. For the same substance, in data set [2] (setting [4]), the “Subjective spray rating of “burn”, effect of treatment” value was “Main effect of treatment was significant; also recorded: There was an effect of treatment” and the “Subjective spray rating of “taste”, effect of treatment” value is reported as “Main effect of treatment was significant; also recorded: there was an effect of treatment”. Moreover, the “Subjective spray rating of “burn”, effect of treatment” value in data set [2] (vs 8.7% NaCl placebo, scale 0-10, three spray rounds, p≤0.05, listed as Intranasal insulin) is given as “notable burning sensation”. Also, in data set [3] (60 IU intranasal vs placebo), the “Glucose, effect of treatment” value is listed as “did not differ; also recorded: subjects remained well within euglycemic range; also recorded: minor decline in plasma glucose concentrations” and the “Serum (circulating) insulin levels, effect of treatment” value is “did not differ; also recorded: no detection of treatment effects; also recorded: no significant changes in circulating insulin”. Besides, the “Serum insulin, treatment×time interaction, b” value in data set [3] (SE(b)=0.01, z=−0.37, p=0.71, non-significant) was −0.005. For the same substance, the “Glucose, treatment×time interaction, b” value in data set [3] (SE(b)=0.02, z=2.60, p≤0.01) was 0.05. Further, the “Glucose, treatment, b” value in data set [3] (SE(b)=2.55, z=−1.06, p=0.28) is −2.72.
